{
  "source": "the DeepSol protein solubility set",
  "data": [
    {"experiment": "soluble on expression in E. coli; label from the status in PepcDB or PDB records", "values": [
      {"sequence": "MAHHHHHHMRSLPNIIVTGVPGVGKTTLCEELVEILNKQLKENQQAESASQMKHLNLSKVIKEERLYEEFDDQLDASIYSSDMVNEKLEKLKLENGGYIIDFHDVDFLDEKELIDHIFLLTASTNKLYERLEKRNYSEEKIKNNIECEIFQVIKEDILTSYNDPSIFDELENNDMEQYESNLQLIKGWVLSWVKNGVAMPR", "soluble on expression in E. coli": "soluble"},
      {"sequence": "MAHHHHHHMSSASIVALSLSLSFSLGLLRSLGSARHIRYGHPHTNTSAYGGRHPRMQVMAAAARTYRHIVARELSTNFRAVASIVEAPFPTVLHPKAILVKNKYLGVNASDINFTAGIYQPDVRPPFACGFEAVGEVVDVGSGVKDLKAGAAVVTQSYGAFAEYQVVARRHAKPIPRVAREYLPLDLSATTASIALEHVLKPQPGERAVVTAAAGGTGQFAVQLLKHVYGCSVVGTCSSPSKEVFLTNTLKCDGVVNYKAEGGDTAAAFLRCYPRGVNIAYESVGGDLLEAVIQSLAPRGRILSLGCVSTYQCGSIEAACPSRKPLPLQLLAKSASLSTFFLPHFAKYGQLHFDRLCALHEQGLVQCCIDPTTFEGLEGVYDAIDWMFEQKNCGKVMVEL", "soluble on expression in E. coli": "not soluble"},
      {"sequence": "MGSDKIHHHHHHMSEVHTTIIDLDAGAVFSGTPSGRIIKGFDKPCAHTPNIDPDYVFHECSRDIVVWLMDSSDPLYVFGPTGSGKTSAIKQLAARLNYPVFDVTGHGRLEFPDLVGHLSVRDGSMEFQYGPLALAMRHGGILLLNEIDLLEPATATGFNGILDGEPLCIPENGGEIITPHPMFRFAATANTNGGSDDTGLYQGTLRQNLAFLDRFWLCEMPYPAPEAEKALLERRAPMLPDDIRTRMVDYANEVRRLFMGESGTTYGHSIEVTFSTRTLLRWADLTVRFQPLARQGIQPLTYALDRALGFKASKDTRTTLHELAQRLFPQHAATGE", "soluble on expression in E. coli": "not soluble"},
      {"sequence": "LKSLRCFWNVRFITLSMLPRYTAQMLRRFIPPMLSLWLLFASLAQANGTVDKIQIKGLDKGDDVEMMKNITVSLSLYSVVGKEQGEFRLEYLLSQAEFQTRQALEPFGYYAPTIRIDAPRQNDHITVVIYVDKGEPVRVRQAHVAMTGAAAQDHYLQRDLEDFKPKLGEIFNHPTYEASKVRITRRLAERGYFDADFTHRRVEVTRAAHAADIDLIWESGRRYDMGPVRFHYDYFHEGLFNPLVYWDEGSYFHEGKLDRLRESLTKLDYFSSIDIQPKPEEADPEGNVPVDVKLERAKSKIYTAGISYGSESGAGLRAGVERRYMNARGHKMNARLDYAQNLKSLTTAYQIPAFKWLDGWYIFFARAYDEQTKYIDLRNVKLSAARSGQINRHLTATASLNALRGRWRYRADDGTNTVAYQQSTLVYPQLEASYVDVDDATFPRNGSAATVLLRGGASALGSKSNFTQLHGQLRWFHGLGASSRLILRGEAGTTWASDLVAMPPSLRFFAGGVNSIRGYAFREVGPRTAKPDAFALGAKHVFSAGAEFEYYYKGGPFGGAVFVDSGSAFNRYPDWHTGVGIGLRYRSPVGPVRVDIARGLNSPDSKIQLYIDIGANL", "soluble on expression in E. coli": "soluble"},
      {"sequence": "MGSDKIHHHHHHMEETVQRIEPARLEDVAEPISDALAELSASSAVLGAKLHPRTAANLADLVRIMNTYYSNLIEGHNTRPRDIERALAGEFDKDQERRNLQVEAAAHVRLQGEIDRLAAEGQLPEPASLDFLRWLHAEFYRDADEAMLRIRGPDREFLMVPGRWRSQPEHDVTVGRHQPPSSDRVEAFMEHFASRYRFQRTGKAARILAIPAAHHRFNYIHPFPDGNGRVSRLMSHAMAHEAGIAAHGLWSISRGLARGLESRGDYKRMMDHADMPRQGDRDGRGNLSMRALADFTLWFLRVCIDQVSFMSSLFDLNQLARRLQRFVQRYDLKPEAFRLLEEALLRGEFDRGEASRIAGLPERTARRVFTEVLELGLLASDTPKGPVSLRFPVDTLDELFPKLFPET", "soluble on expression in E. coli": "not soluble"},
      {"sequence": "MGSDKIHHHHHHMTIEMKNNKNNNCNFPTLRFPEFSGEWKKDIIGNVISVKSEKYNPHSNRTEFICVELESISQGTGELLETFNSAEQKSIKNKFSPGTVLFGKLRPYLRKFYLPYFEGVCSSEIWVMRSNKIEPAFLYSFIQTPYFISLANQSSGSKMPRADWGLIETSKIAYPPNSAERVKIGKFLKLIDERIATQNKIIAHLESLIKGLTNQLLIPNSNWQPTTIGQVLTINPGKDYKHLKEGNIPVYGTGGYMLSVNDYLYDGESVCIGRKGTINKPIFLTGKFWTIDTLFYTSNFNSLLPRFGYYLFKTIDWLKYNEASGVPSLSKVSIEKIHISLPSLAIQNSICRLLDSIYDKLALEESVLNNHQTQKAFILQQMFI", "soluble on expression in E. coli": "not soluble"},
      {"sequence": "IALENTIEQRLAADVATLVSAARVEKGRLVMPEHLPVEEFNLPEAKVLGYIYDQNGDLLWRSTSAADESINYTPRYDGRGNEFHTTRDAKGEEFFVFDVEIDLLRGKQAAYSIVTMQSVSEFESLLKGFREQL", "soluble on expression in E. coli": "not soluble"}
    ]}
  ]
}
